Values joined by “and” are separate entries in the source; they are usually repeats but may differ in a detail not shown here. Equal values may be shown once.
T1: human IL-7 (human, UniProt P13232 26-177)
T1 construct: Immobilised on a CM4 chip by primary amine coupling; also called Mature processed human IL-7
T1 sequence: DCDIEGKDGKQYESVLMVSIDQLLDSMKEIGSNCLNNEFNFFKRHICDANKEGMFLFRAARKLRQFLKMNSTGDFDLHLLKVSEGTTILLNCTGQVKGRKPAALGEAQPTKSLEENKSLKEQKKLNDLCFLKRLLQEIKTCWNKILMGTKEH


Assays:
[1] = target: T2, full length (mature) human TSLP, recombinant (human, UniProt Q969D9 29-159, biotinylated in the SPR assay on the SA chip); assay: ELISA RBA, geometric mean
T2 construct: also called hTSLP; Human TSLP from E. coli

[2] = target: T2, full length (mature) human TSLP, …; assay: cell-based or functional assay
[3] = target: T2, full length (mature) human TSLP, …; assay: SPR, biotinylated TSLP on SA chip (Biacore 4000)
[4] = target: T2, full length (mature) human TSLP, …; assay: SPR, biotinylated TSLP on SA chip; all concentrations (footnote 1)
[5] = target: T2, full length (mature) human TSLP, …; assay: SPR, biotinylated TSLP on SA chip; value excluding 1000 nM concentration
[6] = target: T2, full length (mature) human TSLP, …; assay: cell-based or functional assay; remark: listed apart in the source
[7] = target: T3, native human TSLP (supernatant from stimulated human lung fibroblasts) (human, UniProt Q969D9 29-159); assay: cell-based or functional assay
[8] = target: T2, full length (mature) human TSLP, …; assay: RBA, geometric mean (n = 2)
[9] = target: T2, full length (mature) human TSLP, …; assay: TSLP receptor binding assay (RBA, ELISA, OD 450 nm): dAb titrated against recombinant human TSLP (1 ng/ml); blocked is the binding of TSLP to the plate-coated TSLP receptor complex
[10] = target: T2, full length (mature) human TSLP, …; assay: cell-based or functional assay; remark: listed apart in the source
[11] = target: T2, full length (mature) human TSLP, …; assay: SPR with biotinylated TSLP; mean of two experiments
[12] = target: T3, native human TSLP (supernatant from …); assay: TSLP receptor binding assay (RBA, ELISA, OD 450 nm): dAb titrated against native human TSLP (supernatant of stimulated human lung fibroblasts); blocked is the binding of TSLP to the plate-coated TSLP receptor complex
[13] = target: T4, short form TSLP (synthetic biotinylated 63 amino acid peptide comprising residues 69-131 of mature full … (human, biotinylated (position not given))); assay: ForteBio Octet, biotinylated sfTSLP on streptavidin tips
T4 construct: also called sfTSLP; sf TSLP
T4 sequence (peptide, as listed by the source): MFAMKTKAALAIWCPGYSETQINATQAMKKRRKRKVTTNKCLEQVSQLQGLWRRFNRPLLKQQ

[14] = target: glycosylated recombinant human TSLP expressed from HEK cells (human, UniProt Q969D9 29-159, glycosylated); assay: cell-based or functional assay
human IL-7 = target: T1, human IL-7; assay: SPR (Biacore)

| Binder | IC50 [1] [nM] | pSTAT5 assay in SW756 cells, Geometric Mean IC50 [2] [nM] | Kd [3] [nM] | further results |
| --- | --- | --- | --- | --- |
| DOM30h-440-65 (other) VL: DIQMTQSPSSLSASVGDRVTITCRASRPIRNWLDWYQQKPGKAPKLLIWGASHLQSGVPSRFSGSGSGTDFTLTISSLQPEDFATYYCMQIGEDPVTFGQGTKVEIKR | 0.69 | 0.78 | 3.84 | – |
| DOM30h-440-55 (other) VL: DIQMTQSPSSLSASVGDRVTITCRASRPIRNWLDWYQQKPGKAPKLLIWGASHLQSGVPSRFSGSGSGTDFTLTISSLQPEDFATYYCVQIGEDPVTFGQGTKVEIKR | 0.87 | 1.1 | 2.78 | – |
| DOM30h-440-58 (other) VL: DIQMTQSPSSLSASVGDRVTITCRASRPIRNWLDWYQQKPGKAPKLLIWGASHLQSGVPSRFSGSGSGTDFTLTISSLQPEDFATYYCLQIADDPVTFGQGTKVEIKR | 1.41 | 1.91 | 2.65 | – |
| DOM30h-440-57 (other) VL: DIQMTQSPSSLSASVGDRVTITCRASRPIRNWLDWYQQKPGKAPELLIWGASHLQSGVPSRFSGSGSGTDFTLTISSLQPEDFATYYCMQIGDDPVTFGQGTKVEIKR | 0.34 | 0.56 | – | Kd [4]: 3.48 nM; Kd [5]: 1.5 nM |
| DOM30h-440-53 (other) VL: DIQMTQSPSSLSASVGDRVTITCRASRPIRNWLDWYQQKPGKAPKLLIWGASHLQSGVPSRFSGSGSGTDFTLTISSLQPEDFATYYCLQVGEDPVTFGQGTKVEIKR | 2 | 1.92 | 3.05 | – |
| DOM30h-440-54 (other) VL: DIQMTQSPSSLSASVGDRVTITCRASRPIRNWLDWYQQKPGKAPKLLIWGASHLQSGVPSRFSGSGSGTDFTLTISSLQPEDFATYYCWQLAFDPTTFGQGTKVEIKR | 2.15 | 1.52 | 3.82 | – |
| DOM30h-440-56 (other) VL: DIQMTQSPSSLSASVGDRVTITCRASRPIRNWLDWYQQKPGKAPKLLIWGASHLQSGVPSRFSGSGSGTDFTLTVSSLQPEDFATYYCMQIGEDPVTFGQGTKVEIKR | 0.56 | 0.99 | 2.47 | – |
| DOM30h-440-81/86 (other, Vk single variable domain (dAb); DOM30h-440-55 with the C-terminal R removed (-R); also called DOM30h-440-86; TSLP dAb) VL: DIQMTQSPSSLSASVGDRVTITCRASRPIRNWLDWYQQKPGKAPKLLIWGASHLQSGVPSRFSGSGSGTDFTLTISSLQPEDFATYYCVQIGEDPVTFGQGTKVEIK | – | – | – | IL-5 production from human PBMC stimulated with a mixture of TSLP, IL-33 and IL-25, Geometric Mean IC50 [6]: 129 nM; native TSLP-induced STAT5 phosphorylation in SW756 cells, Geometric Mean IC50 [7]: 0.86 nM; IC50 [8]: 1.94 nM; IC50 (read off the curve) [9]: ~4 nM; Inhibition of TSLP-induced TARC in whole blood, Geometric Mean IC50 (n = 7) [10]: 2.4 nM; Inhibition of TSLP-induced pSTAT5 in SW756 cells, Geometric Mean IC50 (n = 5) [10]: 1.92 nM; Kd [11]: 0.867 nM and 0.87 nM; koff [11]: 0.000508 s⁻¹; kon [11]: 619000 M⁻¹ s⁻¹; IC50 (read off the curve) [12]: ~0.1 nM; binding result [13]: no binding; Inhibition of TSLP-induced TARC in whole blood, Geometric Mean IC50 (n = 6) [14]: 3.1 nM; Inhibition of TSLP-induced pSTAT5 in SW756 cells, Geometric Mean IC50 (n = 3) [14]: 0.55 nM; binding result (human IL-7): no binding |

Second part, led by results:

| IC50 [1] [nM] | pSTAT5 assay in SW756 cells, Geometric Mean IC50 [2] [nM] | Kd [3] [nM] | Binder | further results |
| --- | --- | --- | --- | --- |
| 1.55 | 2.21 | 4.22 | DOM30h-440-63 (other) VL: DIQMTQSPSSLSASVGDRVTITCRASRPIRNWLDWYQQKPGKAPKLLIWGASHLQSGVPSRFSGSGSGTDFTLTISSLQPEDFATYYCMQIGSDPVTFGQGTKVEIKR | – |
| 0.32 | 0.7 | 0.14 | DOM30h-440-60 (other) VL: DIQMTQSPSSLSASVGDRVTITCRASRPIRNWLDWYQQKPGKAPKLLIWGASHLQSGVPSRFSGSGSGTDFTLTISSLQPEDFATYYCIQFGEDPVTFGQGTKVEIKR | – |
| 0.95 | 3.26 | 6.17 | DOM30h-440-64 (other) VL: DIQMTQSPSSLSASVGDRVTITCRASRPIRNWLDWYQQKPGKAPKLLIWGASHLQSGVPSRFSGSGSGTDFTLTISSLQPEDFATYYCLQIGEDPVTFGQGTKVEIKR | – |

From patent publication US20170260266A1 (GlaxoSmithKline, published 2017)
